Test results: US20170189505A1

B1: SEQ ID No 189 peptide … (peptide)
peptide: WYVNGVNYF
B2: SEQ ID No 190 peptide … (peptide)
peptide: GFFIFNERF
B3: SEQ ID No 171 peptide … (peptide)
peptide: LFIPSSKLLFL
B4: SEQ ID No 283 peptide … (peptide)
peptide: TYGDAGLTYTF
B5: SEQ ID No 194 peptide … (peptide)
peptide: EFGSLHLEFL
B6: SEQ ID No 288 peptide … (peptide)
peptide: VYVSDIQEL
B7: SEQ ID No 208 peptide … (peptide)
peptide: TYTQDFNKF
B8: SEQ ID No 286 peptide … (peptide)
peptide: RYPDNLKHL
B9: SEQ ID No 196 peptide … (peptide)
peptide: LYIDRPLPYL
B10: SEQ ID No 274 peptide … (peptide)
peptide: AYLHSHALI
B11: SEQ ID No 160 peptide … (peptide)
peptide: VYTLDIPVL
B12: SEQ ID No 169 peptide … (peptide)
peptide: AYTLIAPNI
B13: SEQ ID No 228 peptide … (peptide)
peptide: KYTSWYVAL
B14: SEQ ID No 167 peptide … (peptide)
peptide: NYINRILKL
B15: SEQ ID No 193 peptide … (peptide)
peptide: RFHPTPLLL
B16: SEQ ID No 289 peptide … (peptide)
peptide: KYPVEWAKF
B17: SEQ ID No 161 peptide … (peptide)
peptide: IYLVSIPEL
B18: SEQ ID No 162 peptide … (peptide)
peptide: VFTRVSSFL
B19: SEQ ID No 176 peptide … (peptide)
peptide: EYNQWFTKL
B20: SEQ ID No 174 peptide … (peptide)
peptide: VYVGGGQIIHL
B21: SEQ ID No 221 peptide … (peptide)
peptide: RYSTGLAGNLL
B22: SEQ ID No 226 peptide … (peptide)
peptide: VYRDETGELF
B23: SEQ ID No 275 peptide … (peptide)
peptide: EYINQGDLHEF
B24: SEQ ID No 184 peptide … (peptide)
peptide: VFQNFPLLF
B25: SEQ ID No 182 peptide … (peptide)
peptide: IYQLDTASI
B26: SEQ ID No 180 peptide … (peptide)
peptide: IYDDSFIRPVTF
B27: SEQ ID No 267 peptide … (peptide)
peptide: KYMVYPQTF
B28: SEQ ID No 282 peptide … (peptide)
peptide: KFVDSTFYL
B29: SEQ ID No 276 peptide … (peptide)
peptide: VYGFQWRHF
B30: SEQ ID No 179 peptide … (peptide)
peptide: MYDSYWRQF
B31: SEQ ID No 158 peptide … (peptide)
peptide: HYSQELSLLYL
B32: SEQ ID No 185 peptide … (peptide)
peptide: IYKVGAPTI
B33: SEQ ID No 173 peptide … (peptide)
peptide: IYSWILDHF
B34: SEQ ID No 214 peptide … (peptide)
peptide: LYLKLWNLI
B35: SEQ ID No 170 peptide … (peptide)
peptide: VYEDQVGKF
B36: SEQ ID No 211 peptide … (peptide)
peptide: YYLEVGKTLI
B37: SEQ ID No 166 peptide … (peptide)
peptide: YYVESGKLF
B38: SEQ ID No 227 peptide … (peptide)
peptide: IFLDYEAGTLSF
B39: SEQ ID No 191 peptide … (peptide)
peptide: VFKASKITF
B40: SEQ ID No 195 peptide … (peptide)
peptide: TYSVSFPMF
B41: SEQ ID No 177 peptide … (peptide)
peptide: VYPWLGALL
B42: SEQ ID No 206 peptide … (peptide)
peptide: EYQENFLSF
B43: SEQ ID No 280 peptide … (peptide)
peptide: RYPDNLKHLYL
B44: SEQ ID No 210 peptide … (peptide)
peptide: IYTMIYRNL
B45: SEQ ID No 172 peptide … (peptide)
peptide: TYTTVPRVAF
B46: SEQ ID No 178 peptide … (peptide)
peptide: IFIEVFSHF
B47: SEQ ID No 223 peptide … (peptide)
peptide: KYIPYKYVI
B48: SEQ ID No 164 peptide … (peptide)
peptide: KFSSFSLFF
B49: SEQ ID No 284 peptide … (peptide)
peptide: RYLNKAFHI
B50: SEQ ID No 203 peptide … (peptide)
peptide: FYSRLLQKF
B51: SEQ ID No 197 peptide … (peptide)
peptide: EYSLFPGQVVI
B52: SEQ ID No 165 peptide … (peptide)
peptide: DYTTWTALL
B53: SEQ ID No 219 peptide … (peptide)
peptide: EYPLVINTL
B54: SEQ ID No 186 peptide … (peptide)
peptide: IFPQFLYQF
B55: SEQ ID No 278 peptide … (peptide)
peptide: RYISDQLFTNF
B56: SEQ ID No 192 peptide … (peptide)
peptide: SYALLTYMI
B57: SEQ ID No 273 peptide … (peptide)
peptide: TYIKPISKL
B58: SEQ ID No 159 peptide … (peptide)
peptide: LYNKGFIYL
B59: SEQ ID No 181 peptide … (peptide)
peptide: LYLDIINLF
B60: SEQ ID No 271 peptide … (peptide)
peptide: LYHDIFSRL
B61: SEQ ID No 225 peptide … (peptide)
peptide: YYVYIMNHL
B62: SEQ ID No 205 peptide … (peptide)
peptide: VHIPEVYLI
B63: SEQ ID No 215 peptide YFDKVVTL (peptide)
peptide: YFDKVVTL
B64: SEQ ID No 183 peptide … (peptide)
peptide: VFTSTARAF
B65: SEQ ID No 163 peptide … (peptide)
peptide: DYLKGLASF
B66: SEQ ID No 198 peptide … (peptide)
peptide: LYLDKATLI
B67: SEQ ID No 217 peptide … (peptide)
peptide: FFPPTRQMGLLF
B68: SEQ ID No 168 peptide … (peptide)
peptide: KYQDILETI
B69: SEQ ID No 188 peptide RYFKGLVF (peptide)
peptide: RYFKGLVF
B70: SEQ ID No 187 peptide … (peptide)
peptide: TYLRDQHFL
B71: SEQ ID No 175 peptide … (peptide)
peptide: YYEVHKELF
B72: SEQ ID No 279 peptide … (peptide)
peptide: TYIESASEL
B73: SEQ ID No 272 peptide … (peptide)
peptide: QYLQDAYSF
B74: SEQ ID No 216 peptide … (peptide)
peptide: QYSSVFKSL
B75: SEQ ID No 224 peptide … (peptide)
peptide: QYLENLEKL

Biological target: HLA-A*24 (human)
Experiment: UV peptide exchange, anti-b2m ELISA

| Binder | peptide exchange yield [%] |
| --- | --- |
| B1 | 20 to 49 |
| B2 | 50 to 75 |
| B3 | 50 to 75 |
| B4 | 50 to 75 |
| B5 | < 20 |
| B6 | 50 to 75 |
| B7 | 50 to 75 |
| B8 | 20 to 49 |
| B9 | 50 to 75 |
| B10 | > 75 |
| B11 | > 75 |
| B12 | 50 to 75 |
| B13 | > 75 |
| B14 | > 75 |
| B15 | > 75 |
| B16 | > 75 |
| B17 | > 75 |
| B18 | 50 to 75 |
| B19 | 50 to 75 |
| B20 | 50 to 75 |
| B21 | 50 to 75 |
| B22 | 50 to 75 |
| B23 | 50 to 75 |
| B24 | > 75 |
| B25 | 50 to 75 |

| Binder | peptide exchange yield [%] |
| --- | --- |
| B26 | 50 to 75 |
| B27 | > 75 |
| B28 | > 75 |
| B29 | > 75 |
| B30 | > 75 |
| B31 | > 75 |
| B32 | 50 to 75 |
| B33 | > 75 |
| B34 | 50 to 75 |
| B35 | 20 to 49 |
| B36 | > 75 |
| B37 | > 75 |
| B38 | > 75 |
| B39 | 50 to 75 |
| B40 | > 75 |
| B41 | > 75 |
| B42 | 50 to 75 |
| B43 | > 75 |
| B44 | > 75 |
| B45 | > 75 |
| B46 | 50 to 75 |
| B47 | 50 to 75 |
| B48 | 50 to 75 |
| B49 | 50 to 75 |
| B50 | 50 to 75 |

| Binder | peptide exchange yield [%] |
| --- | --- |
| B51 | 50 to 75 |
| B52 | > 75 |
| B53 | 50 to 75 |
| B54 | > 75 |
| B55 | > 75 |
| B56 | > 75 |
| B57 | 50 to 75 |
| B58 | > 75 |
| B59 | > 75 |
| B60 | > 75 |
| B61 | 50 to 75 |
| B62 | 50 to 75 |
| B63 | 20 to 49 |
| B64 | 50 to 75 |
| B65 | > 75 |
| B66 | 50 to 75 |
| B67 | > 75 |
| B68 | > 75 |
| B69 | 50 to 75 |
| B70 | > 75 |
| B71 | > 75 |
| B72 | 50 to 75 |
| B73 | > 75 |
| B74 | > 75 |
| B75 | 50 to 75 |
